{"source": "the nanobody polyreactivity screen of Harvey et al. (2022)"}
{"assay": "yeast display, Sf9 membrane polyspecificity reagent, FACS + sequencing; frameworks hold sequencing errors", "in_short": "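Galactose-induced (36–48 hours) yeast carrying a synthetic nanobody display library were exposed to 10% biotinylated, detergent-solubilized Sf9 membrane reagent at 4 °C for 1 hour. FACS followed streptavidin microbead enrichment, using low and high (top ~1%) gates for expression (anti-HA) and reagent binding (streptavidin). Colony PCR, MiSeq 2 × 250 sequencing and CDR-length filtering followed. Labels for polyreactivity reflect the gate of origin.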"}
{"sequence": "QVQLVESGGGLVQAGGSLRLSCAASGSIFQFSAMGWYRQAPGKERPLVAAISDRGGSTYYADSVKGRFTISRDNAKNTVYLLMNSLKPEDTAVYYCAKGGEVSQGYTDEYDYWGQGTQVTVSS", "polyreactivity (PSR sort gate)": "low polyreactivity"}
{"sequence": "QVQLVESGGGLVQAGGSLRLSCAASGSIFQGNAKGGYRQAPGKERELVAGISDGGSTYYADSVKGRFTISRDNAKNTVYLQMNSLKPEDTAVYYCAAESEQWYSYVLSYDWEYDYWGQGTQVTVSS", "polyreactivity (PSR sort gate)": "low polyreactivity"}
{"sequence": "QVQLVESGGGLVQAGGSLRLSCAASGSIFQGYAMGWYRQAPGKERELVAAITASGGSTYYADSVKRRFTISRDNAKNTVYLQMNSLKPEDTAVYYCATDSYWRQDLYRYEYWGQGTQVTVSS", "polyreactivity (PSR sort gate)": "high polyreactivity"}
{"sequence": "QVQLVESGGGLVQAGGSLRLSCAASGSIFQGYAMGWYRQAPGKERELVARITSDDDSTYYADSVKGRFTISRDNAKITVYLQMNSLKPEDTAVYYCNADYYWTSLAMDSWGQGTKVTVSS", "polyreactivity (PSR sort gate)": "low polyreactivity"}
{"sequence": "QVQLVESGGGLVQAGGSLRLSCAASGSIFQPYAMGWYRQAPGKERELVAAINGRGGSTHYADSVKGRFTISRDNAKNTVYLQMNSLKPEDTAVYYCAATWAYPGSGYVYFYGNDYWGQGTQVTVSS", "polyreactivity (PSR sort gate)": "high polyreactivity"}
{"sequence": "QVQLVESGGGLVQAGGSLRLSCAASGSIFQPYAMGWYRQAPGKERELVAAISSSGGSTTYADSVKGRFTISRDNAKNTVYLQMNSLKPEDTAVYYCAAQYRYYPEAYGMGYWGQGTQVTVSS", "polyreactivity (PSR sort gate)": "low polyreactivity"}
{"sequence": "QVQLVESGGGLVQAGGSLRLSCAASGSIFQPYGMGWYRQAPGKERELVASIRGSAGSTHYADSVKGRFTISRDNAKYTVYLQMNSLKPEDTAVDYCAARAVASHFSPSLYGYWGHGTQVTVSS", "polyreactivity (PSR sort gate)": "high polyreactivity"}
{"sequence": "QVQLVESGGGLVQAGGSLRLSCAASGSIFQQYAMGWYRQAPGKERELVAAISWGDGSTYYADSVKGRFTISRDNAKNTVYLQKNSLKPEDTAVYYCNAYASAPLWSLEDDYWGQGTQVTVSS", "polyreactivity (PSR sort gate)": "low polyreactivity"}
{"sequence": "QVQLVESGGGLVQAGGSLRLSCAASGSIFQQYAMGWYRQAPGKERELVAAITYSGDGTYYADSVKGRFTISRDNAKNTVYLQMNSLKPEDTAVYYCAAYPRDPYKEYDYWGQGNQVTVSS", "polyreactivity (PSR sort gate)": "low polyreactivity"}
{"sequence": "QVQLVESGGGLVQAGGSLRLSCAASGSIFQRYAMGWYRQAPGKERELVAAISGSGGRTYYADSVKGRFTISRDNAKNTVYLQMNSLKPEDTAVYYCAKDFRLRGGYDYWGQGTQVTVSS", "polyreactivity (PSR sort gate)": "high polyreactivity"}
{"sequence": "QVQLVESGGGLVQAGGSLRLSCAASGSIFQRYTMGWYRQAPGKERELVARISGRGGSTYYADSVKGRFTISRDNAKNTVYLQMNSMKPEDTAVYYCAADTGRYLDSNYWGQGTQVTVSS", "polyreactivity (PSR sort gate)": "high polyreactivity"}
{"sequence": "QVQLVESGGGLVQAGGSLRLSCAASGSIFQSNAMGWYRQAPAKESELVAAISSSGGRTYYADSVKGRFTISRDNAKNTVYFQMNSLKPEDTAVYYCAALGYPDGGWGLGTQVTVSS", "polyreactivity (PSR sort gate)": "low polyreactivity"}
{"sequence": "QVQLVESGGGLVQAGGSLRLSCAASGSIFQSYAMGWYIQAPGKERELVAAISARGGTTNYADSVKGRFTISRDNAKNTVYLQMNSLKPEDTAVYYCAKVYRYGYSKYYYWGQGTQVTVSS", "polyreactivity (PSR sort gate)": "high polyreactivity"}
{"sequence": "QVQLVESGGGLVQAGGSLRLSCAASGSIFQVYAMGWYRQAPGKEREFVAAISYSGGGTYYADSVKGRFTISRDNAKNTVFLQMNSLKPEDTAVYYCAADVSGWEYDFWGLGTQVTVSS", "polyreactivity (PSR sort gate)": "low polyreactivity"}
{"sequence": "QVQLVESGGGLVQAGGSLRLSCAASGSIFQWYAMGWYRQAPGQERELFAAITWSGDTTYYADSVKGRFTISRDNAKNTVYLQMNRLKPEDTAVYYCAADTQDRTYYGWRQVGGYDYWGQGTQVTVSS", "polyreactivity (PSR sort gate)": "low polyreactivity"}
{"sequence": "QVQLVESGGGLVQAGGSLRLSCAASGSIFQYTMGWYRQAPGKERELVAAITRSGSSTYYADSVKGRFTISRDNAKNTVYLQMNSLKPEDTAVYSCAHTIRRVLGYGSWGQGTQVTVSS", "polyreactivity (PSR sort gate)": "high polyreactivity"}
{"sequence": "QVQLVESGGGLVQAGGSLRLSCAASGSIFQYYGMGWYRQAPGKERELVAAISRGGSTNYADSVKGRFTISRDNAKNTVYLQMNSLKPEDTAVYYCNARTYRKAYSGYNYWGQGTQVTVSS", "polyreactivity (PSR sort gate)": "high polyreactivity"}
{"sequence": "QVQLVESGGGLVQAGGSLRLSCAASGSIFQYYVMGWYRQAPGKERELVAAISQSGGRTYYADSVKGRFTISRDNAKNTFYLQMNSLKPEDTAVYYCAAYSRNAEYDYWGQGTQVTVSS", "polyreactivity (PSR sort gate)": "high polyreactivity"}
{"sequence": "QVQLVESGGGLVQAGGSLRLSCAASGSIFQYYVMGWYRQAQGKERELVAAISRGGGSTYYADSLKGRFTISRDNAKNTVYLQMNSMKPEDTAVYYCAKRTTRLAPYDYWGQGTQVTVSS", "polyreactivity (PSR sort gate)": "high polyreactivity"}
{"sequence": "QVQLVESGGGLVQAGGSLRLSCAASGSIFRENAMGWYRQAPGKERELVAAITDGGDRTYYADSVKGRFTISRDNAKNTVYLQMNSLKPEDTAVYYCAARWLYWPRYNSLVYTHRDSWGQGTQVTVSS", "polyreactivity (PSR sort gate)": "low polyreactivity"}
{"sequence": "QVQLVESGGGLVQAGGSLRLSCAASGSIFRFNAMGWYRQAPGKERELVAAITSRTYYADSVKGRFTISRDNAKNTVYLQMNSLKPEDTAVYYCAARVQSKYGYWGQGTQVTVSS", "polyreactivity (PSR sort gate)": "high polyreactivity"}
{"sequence": "QVQLVESGGGLVQAGGSLRLSCAASGSIFRFYPLGWYRQSPGKERELVAGITWSGASTYYADSVKGRFTISRDNAKNTVYLQMNSLKPEDTAVYYCAKLYRLDGFYYWGQGTQVTVSS", "polyreactivity (PSR sort gate)": "high polyreactivity"}
{"sequence": "QVQLVESGGGLVQAGGSLRLSCAASGSIFRGNAMGWYRQAPGKERELVAAISWSGASTYYADSVKGRFTISRDNAKNTVYLQMNSLKPEDTAVYYCAAVQWTGYPFDYWGQGTQVTVSS", "polyreactivity (PSR sort gate)": "high polyreactivity"}
{"sequence": "QVQLVESGGGLVQAGGSLRLSCAASGSIFRGNAMGWYRQAPGKERELVAAITSRGTSTYYADSVKGRFTISRDNAKNTVYLQMNSLKREDTAVYYCAARGYYLYWGQGTQVTVSS", "polyreactivity (PSR sort gate)": "high polyreactivity"}
{"sequence": "QVQLVESGGGLVQAGGSLRLSCAASGSIFRGNAMGWYRQAPGKERELVAGINRAGSTKYADSVKGRFTISRDNAKNTVYLQMNSLKPEDTAVYYCAAVRYERGLWSDYWGQGTQVSVSS", "polyreactivity (PSR sort gate)": "high polyreactivity"}
{"sequence": "QVQLVESGGGLVQAGGSLRLSCAASGSIFRGNAMGWYRQAPGKERELVATITNGGSTNYADSVKGRFTISRDNAKNTVYLQMNSLKPEDTAVYYCNADHSYHIASTRHVDYWGQGTQVTVSS", "polyreactivity (PSR sort gate)": "low polyreactivity"}
{"sequence": "QVQLVESGGGLVQAGGSLRLSCAASGSIFRGYAMGWYRQAPGKERELVAAITSRGGSTYYADSVKGRFTISRDNAKNTVYLQMNSLKPEDTAVYYCNKRVYYPWGQGTQVTVSS", "polyreactivity (PSR sort gate)": "high polyreactivity"}
{"sequence": "QVQLVESGGGLVQAGGSLRLSCAASGSIFRGYAMGWYRQAPGKERELVAAITSSAGSTYYADSVKGRFTISRDNAKNTVYLQMNSLKPEDTAVYYCNKYPRASRRGFDYWGQGTQVTVSS", "polyreactivity (PSR sort gate)": "high polyreactivity"}
{"sequence": "QVQLVESGGGLVQAGGSLRLSCAASGSIFRINAMGWYRPARGKERELVAATTKYADSVKGRFTISRDNAKNTVYLQMHSLKPEDTAVYYCAAAPIGGSSHPYDYWGQGTQVTVTS", "polyreactivity (PSR sort gate)": "low polyreactivity"}
{"sequence": "QVQLVESGGGLVQAGGSLRLSCAASGSIFRIYAMGWYRHAPGKERELVAAITGRGGSTYYADSVKGRFTISRDNEKNTVYLQMNSLKPEDTAVYYCAAEERYAYRYDYWGQGTQVTVSS", "polyreactivity (PSR sort gate)": "high polyreactivity"}
{"sequence": "QVQLVESGGGLVQAGGSLRLSCAASGSIFRIYAMGWYRQAPGKERELVAAISWTGGSTYYADSVKGRFTISRDNAKNTFFLQMNSLKPEDTAVYYCAARPRYKFSAYEYWGQGTQVTVSS", "polyreactivity (PSR sort gate)": "high polyreactivity"}
{"sequence": "QVQLVESGGGLVQAGGSLRLSCAASGSIFRIYAMGWYRQSPGKERELVAAISFSTGSRTYYADSVKGRFTISRDNAKNTVYLQMNSLKPEDTAVYYCNAESYYDYNYWGQGTQVTVSS", "polyreactivity (PSR sort gate)": "low polyreactivity"}
{"sequence": "QVQLVESGGGLVQAGGSLRLSCAASGSIFRKNAMGWYRQAPGKERELVAAISSSGGRTYYADSVKGRFTISRDNAKNTVYLQMNSLKPEDTAVYYCAAVYSKGGSSRISPGDDYWGQGTQVTVSS", "polyreactivity (PSR sort gate)": "high polyreactivity"}
{"sequence": "QVQLVESGGGLVQAGGSLRLSCAASGSIFRKNVMGWSRPAPGKERELVAAITASGGRTYYADSVKGRFTISRDNAKNTVYLQMNSLKPEDTAVYYCAARRYYPYISSGPYYYWGQGTQVTVSS", "polyreactivity (PSR sort gate)": "high polyreactivity"}
{"sequence": "QVQLVESGGGLVQAGGSLRLSCAASGSIFRKYAMGWYRQAPGKDRELVAAISKRGGSTYYADSVKGRFTISRDNAKNTVYLQMNSLKPEDTAVYYSNALRRYVSVRPTKSDYWGQGTQVTVSS", "polyreactivity (PSR sort gate)": "high polyreactivity"}
{"sequence": "QVQLVESGGGLVQAGGSLRLSCAASGSIFRKYAMGWYRQAPGKERELVAVITTDGSTNYADSVKGLFTISRDNAKNTVYLQMNSLKPEDTAVYYCNAVRSSIGTDNDYWGQGTQVTVSS", "polyreactivity (PSR sort gate)": "low polyreactivity"}
{"sequence": "QVQLVESGGGLVQAGGSLRLSCAASGSIFRKYTMGWYRQAPGKERELVAAISRIGGSTYYADSVKGRFTISRDNAKNTVYLQMNSLKPEDTAVYYCAKRGPRSYFQPWYDYWGQGTQVTVSS", "polyreactivity (PSR sort gate)": "high polyreactivity"}
{"sequence": "QVQLVESGGGLVQAGGSLRLSCAASGSIFRLNVMGWYRQAPGKERELVAVITGSGTRTNYADSVKGRFTISRDNAKNTVYLQMNSLKPEDTAVYYCNRVTTPTVTYGYGKMDYWGHGTQVTVSS", "polyreactivity (PSR sort gate)": "high polyreactivity"}
{"sequence": "QVQLVESGGGLVQAGGSLRLSCAASGSIFRLYAMGWYRQAPGKERELVAAITRGDSTNYADSVKGRFTISRDNAKNTVYLQMNSLKPEDTAVYYCAVTGRLYAHPQGYDYWGQGTQVTVSS", "polyreactivity (PSR sort gate)": "low polyreactivity"}
{"sequence": "QVQLVESGGGLVQAGGSLRLSCAASGSIFRNNAMGWYRQAPGKERELVASISSSGDSTYADSVKGRFTISRDNAKNTVYLQMNSLKPEDTAVYYCARDYLSPYAVDYWGQGTQVTVSS", "polyreactivity (PSR sort gate)": "low polyreactivity"}
{"sequence": "QVQLVESGGGLVQAGGSLRLSCAASGSIFRNNAMGWYRQAPGKERELVAVISRRSGNTYYADSVKGRFTISRDNAKNTVYLQMNSLKPEDTAVYYCAADYSKSSIRGDYWGQGTQVTVSS", "polyreactivity (PSR sort gate)": "low polyreactivity"}
